In paper PMC10662374, “Structures of the interleukin 11 signalling complex reveal gp130 dynamics and the inhibitory mechanism of a cytokine variant” (Nature Communications, 2023):
One block for each molecule: values may come before it.

What was measured:
[1] = target: IL-11_(Δ10/PAIDY)/IL-11Rα_(D1-D3) binary complex (human) (UniProt P20809); assay: ITC; gp130 in the syringe titrated against the cytokine/IL-11Rα_(D1-D3) complex formed in the cell, 288 K, TBS pH 8.5, 1:1 interaction model, n = 3
[2] = target: IL-11_(Δ10/W147A)/IL-11Rα_(D1-D3) binary complex (human) (UniProt P20809); assay: as above
[3] = target: T1, IL-11Δ10/IL-11Rα_(D1-D3) binary complex (human, UniProt P20809 32-199; Q14626 23-319); assay: as above
T1 construct: IL-11, human, IL-11Δ10, as m1; numbers count on: the mature protein; IL-11Rα, human, D1-D3, as m8; m1 with m8; also called IL-11Rα_(D1-D3)/IL-11Δ10 binary complex; binary IL-11/IL-11Rα complex; source: formed from the purified proteins (IL-11Δ10 from E. coli, IL-11Rα_(D1-D3) from Sf21); in ITC by titrating the cytokine into IL-11Rα; not shown: His6, N-terminal, cleaved; His8, N-terminal, cleaved; …
T1 sequence 1: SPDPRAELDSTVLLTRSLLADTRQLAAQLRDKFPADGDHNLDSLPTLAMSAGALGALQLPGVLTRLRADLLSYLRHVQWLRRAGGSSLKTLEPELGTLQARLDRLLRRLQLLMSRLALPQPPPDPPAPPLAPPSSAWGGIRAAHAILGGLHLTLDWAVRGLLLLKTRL
T1 sequence 2: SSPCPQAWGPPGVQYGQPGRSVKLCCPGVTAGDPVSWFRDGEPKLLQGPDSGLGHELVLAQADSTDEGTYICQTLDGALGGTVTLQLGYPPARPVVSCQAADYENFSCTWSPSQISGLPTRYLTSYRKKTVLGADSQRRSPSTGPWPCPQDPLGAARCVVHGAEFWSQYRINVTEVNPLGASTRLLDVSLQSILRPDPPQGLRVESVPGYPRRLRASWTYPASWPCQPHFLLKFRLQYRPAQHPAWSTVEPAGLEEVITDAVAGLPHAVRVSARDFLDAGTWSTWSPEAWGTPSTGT

IL-11Ralpha D1-D3 = target: T2, IL-11Ralpha D1-D3 (Homo sapiens, UniProt Q14626); assay: ITC
T2 chain: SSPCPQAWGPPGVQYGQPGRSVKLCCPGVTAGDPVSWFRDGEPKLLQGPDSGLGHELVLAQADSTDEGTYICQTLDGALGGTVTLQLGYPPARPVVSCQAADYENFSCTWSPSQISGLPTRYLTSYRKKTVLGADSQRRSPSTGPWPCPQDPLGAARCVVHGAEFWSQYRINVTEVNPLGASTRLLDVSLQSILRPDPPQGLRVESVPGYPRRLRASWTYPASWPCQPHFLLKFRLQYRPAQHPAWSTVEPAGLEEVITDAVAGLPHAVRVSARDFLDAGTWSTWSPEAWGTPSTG

IL-11Rα_(D1-D3) [4] = target: T3, IL-11Rα_(D1-D3) (human, UniProt Q14626 23-319, N-linked glycans (N105, N172 seen in the structures)); assay: ITC; cytokine in the syringe (10-fold above IL-11Rα), IL-11Rα_(D1-D3) in the cell at 10 μM, TBS pH 8.5, 1:1 interaction model, n = 3; settings: both partners purified
T3 construct: Secreted with a honeybee-melittin signal peptide; also called C-terminally truncated form of IL-11Rα; not shown: His8, N-terminal, cleaved
T3 sequence: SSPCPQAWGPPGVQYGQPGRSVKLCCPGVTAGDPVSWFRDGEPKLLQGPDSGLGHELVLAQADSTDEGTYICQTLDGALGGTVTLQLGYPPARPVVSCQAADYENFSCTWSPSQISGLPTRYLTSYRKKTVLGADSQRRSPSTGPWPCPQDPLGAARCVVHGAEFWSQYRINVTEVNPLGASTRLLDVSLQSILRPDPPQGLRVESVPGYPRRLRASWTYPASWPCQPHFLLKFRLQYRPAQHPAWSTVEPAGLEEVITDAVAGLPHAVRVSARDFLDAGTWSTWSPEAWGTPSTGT

[5] = target: T4, IL-11RαD1-D3 (C-terminally truncated form of human IL-11Rα, structured extracellular domains D1-D3) (human, UniProt Q14626 23-319); assay: SPR; Biacore T200; biotinylated IL-11-avi constructs immobilised on a streptavidin chip; IL-11RαD1-D3 injected, two-fold dilutions from 500 nM; 25 °C (298 K); TBS pH 8.5 + 0.05% Tween; 30 μL/min; 1:1 kinetic model; n = 2; settings: both partners purified
T4 construct: interleukin 11 receptor subunit alpha, human, domains D1-D3 (C-terminally truncated extracellular region); Expressed with a honeybee-melittin signal peptide; not shown: His8, N-terminal, cleaved
T4 sequence: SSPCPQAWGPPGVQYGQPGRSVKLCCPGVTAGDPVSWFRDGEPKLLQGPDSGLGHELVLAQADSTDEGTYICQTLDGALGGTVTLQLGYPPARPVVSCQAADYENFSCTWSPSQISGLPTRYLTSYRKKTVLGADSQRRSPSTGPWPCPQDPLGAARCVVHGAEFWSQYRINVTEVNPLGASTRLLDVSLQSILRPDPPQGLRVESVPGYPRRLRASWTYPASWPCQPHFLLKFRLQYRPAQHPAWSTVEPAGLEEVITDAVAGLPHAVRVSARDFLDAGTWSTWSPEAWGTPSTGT

IL-11Rα_(D1-D3) [6] = target: T3, IL-11Rα_(D1-D3); assay: SPR; Biacore T200, 25 °C, TBS pH 8.5 + 0.05% Tween, 30 μL/min; biotinylated IL-11-avi on a streptavidin chip, IL-11Rα_(D1-D3) flowed over (two-fold dilutions from 500 nM), 1:1 kinetic model, n = 2; settings: both partners purified
[7] = target: the molecule itself; assay: cell-based or functional assay

B1: IL-11_(Δ10/W147A) (ligand, human)
chain: SPDPRAELDSTVLLTRSLLADTRQLAAQLRDKFPADGDHNLDSLPTLAMSAGALGALQLPGVLTRLRADLLSYLRHVQWLRRAGGSSLKTLEPELGTLQARLDRLLRRLQLLMSRLALPQPPPDPPAPPLAPPSSAAGGIRAAHAILGGLHLTLDWAVRGLLLLKTRL
notes: interleukin 11 (IL-11), human, IL-11Δ10 with W147A; numbers count on: the mature protein; also called IL-11 W147A; W147A mutant; not shown: His6, N-terminal, cleaved
Kd (IL-11Ralpha D1-D3): 10.4 nM
Kd (IL-11Rα_(D1-D3) [4]): 10 nM

B3: biotinylated IL-11_(Δ10/Mutein)-avi (ligand, human)
chain: SPDPRAELDSTVLLTRSLLADTRQLAAQLRDKFPADGDHNLDSLPTLPAIDYALGALQLPGVLTRLRADLLSYLRHVQWLRRAGGSSLKTLEPELGTLQARLDRLLRRLQLLMSRLALPQPPPDPPAPPLAPPSSAAGGIRAAHAILGGLHLTLDWAVRGLLLLKTRL
modifications: biotin on the C-terminal avitag
notes: interleukin 11 (IL-11), human, IL-11Δ10 with W147A and 58-62 AMSAG changed to PAIDY; numbers count on: the mature protein; source: E. coli BL21(DE3), biotinylated, purified as IL-11Δ10; not shown: His6, N-terminal, cleaved; avitag, C-terminal, kept
koff (IL-11Rα_(D1-D3) [6]): 0.034 s⁻¹

B4: IL-11_(Δ10/W147A)/IL-11Rα_(D1-D3)/gp130_(D1-D3) trimer (complex, human)
chain 1: SPDPRAELDSTVLLTRSLLADTRQLAAQLRDKFPADGDHNLDSLPTLAMSAGALGALQLPGVLTRLRADLLSYLRHVQWLRRAGGSSLKTLEPELGTLQARLDRLLRRLQLLMSRLALPQPPPDPPAPPLAPPSSAAGGIRAAHAILGGLHLTLDWAVRGLLLLKTRL
chain 2: SSPCPQAWGPPGVQYGQPGRSVKLCCPGVTAGDPVSWFRDGEPKLLQGPDSGLGHELVLAQADSTDEGTYICQTLDGALGGTVTLQLGYPPARPVVSCQAADYENFSCTWSPSQISGLPTRYLTSYRKKTVLGADSQRRSPSTGPWPCPQDPLGAARCVVHGAEFWSQYRINVTEVNPLGASTRLLDVSLQSILRPDPPQGLRVESVPGYPRRLRASWTYPASWPCQPHFLLKFRLQYRPAQHPAWSTVEPAGLEEVITDAVAGLPHAVRVSARDFLDAGTWSTWSPEAWGTPSTGT
chain 3: GELLDPCGYISPESPVVQLHSNFTAVCVLKEKCMDYFHVNANYIVWKTNHFTIPKEQYTIINRTASSVTFTDIASLNIQLTCNILTFGQLEQNVYGITIISGLPPEKPKNLSCIVNEGKKMRCEWDGGRETHLETNFTLKSEWATHKFADCKAKRDTPTSCTVDYSTVYFVNIEVWVEAENALGKVTSDHINFDPVYKVKPNPPHNLSVINSEELSSILKLTWTNPSIKSVIILKYNIQYRTKDASTWSQIPPEDTASTRSSFTVQDLKPFTEYVFRIRCMKEDGKGYWSDWSEEASGITYEDR
EC50 of STAT3 activation (pSTAT3, flow cytometry) by IL-11_(Δ10/W147A) in Ba/F3 cells stably expressing human gp130 and IL-11Rα [7]: 610 pM

Next, values leading:

Kd [1]: 60 nM
Kd [2]: 130 nM
Kd [3]: 380 nM
dH [3]: 6.45 kcal/mol
Molecule: gp130_(D2-D3) (receptor)

Kd [5]: 78 nM
kon [5]: 1.4e+06 M⁻¹ s⁻¹
B2: biotinylated IL-11Δ10-avi (ligand, human)
chain: SPDPRAELDSTVLLTRSLLADTRQLAAQLRDKFPADGDHNLDSLPTLAMSAGALGALQLPGVLTRLRADLLSYLRHVQWLRRAGGSSLKTLEPELGTLQARLDRLLRRLQLLMSRLALPQPPPDPPAPPLAPPSSAWGGIRAAHAILGGLHLTLDWAVRGLLLLKTRL
modifications: biotin on the C-terminal avitag
notes: interleukin 11, human, N-terminally truncated form (Δ10), as Dm1; numbers count on: the mature protein; also called IL11Δ10 - Avitag; source: E. coli BL21(DE3), biotinylated in the cells, purified as IL-11Δ10; not shown: avitag, C-terminal, kept; His6, N-terminal, cleaved
